Reference: the DeepSol protein solubility set

test: soluble on expression in E. coli; label from the status in PepcDB or PDB records

Question: For “MFPVSSIGNDISSDLVRRKMNDLPESPTGNNLEALAPGIEKLKQTSIEMVTLLNTLQPGGKCIITGDFQKELAYLQNVILYNVSSLRLDFLGYNAQIIQRSDNTCELTINEPLKNQEISTGNININCPLKDIYNEIRRLNVIFSCGTGDIVDLSSLDLRNVDLDYYDFTDKHMANTILNPFKLNSTNFTNANMFQVNFVSSTQNATISWDYLLKITPVLISISDMYSEEKIKFVESCLNEPGDITEEQLKIMRFAIIKSIPRATLTDKLENELTKEIYKSSSKIINCLNRIKLTEMKEFSSEKIYDYIDIIIEDYENTKENAYLVVPQINYTMDLNIEDSSSEELLSDNTLEKDENSPDNGFEVGEYNTYEAYNSEKQYFTREDYTYDYDLLNAI”, which “soluble on expression in E. coli” value is on record?
Answer: Its value is “not soluble”.

Question: Which “soluble on expression in E. coli” value does the source give for “MFQFQFPLYNDIVEQARREAVEAGFEELRTPEDVDAAFRRPGTTLVLINSVCGCAGGIARPAAAHAVHYDKRPDHLVTVFAGQDKEATARAREYFVGEPPSSPSFALLKDGKLCAMLHRHDIEGHEPVAVVQKLQALFDEYCEEV” here?
Answer: Its value is “not soluble”.

Question: For “MFQISELANYRLCKRCSGRIFAYHYHGISNLERGEYLQFAIGCETGNPDFSFVDSKNCDICHGIFDRFDDIYDLVAKKVGDAQYSTFLVGSVFPQDTIRMEEDIQKKFGSSGESIKKEFNREFGKYFSARTGKEYSQDNPDLTILVNAEYLFVDVKIRSIYIYGKYRKFRRDMPQTRWIHRPNGDTVESVIGSVFTRYAGGTNYYLHGSGREDVDVRMLGNGREFVLEVENPRYREFELDPVVKEINTSGKGVEIFDVKFSSHDAVSEVKLEKHRKVYDALVVSDRPIDESRLLEACINLTGKNIYQRTPLRVAQRRSDLVRTRRIDQVDLVGVSANEAEILISAEAGTYIKELVNGDGGRTRPSLSEMYGSPLNVKELDVIKICRGEDLEHHHHHH”, which “soluble on expression in E. coli” value is on record?
Answer: Its value is “soluble”.

Question: With “MFQNSPMMYDWWNDTTKPKHQQPTLNVLSPWGAYFNHIGNELLHLKIASSTVSSGCSSPQQYSSARSVGNSLSNGSVVSTTSSDGDVQLSNKENSNDKSVGDKNGNTTTNKTTVEPPPPEEPPVRVRASHREKLSDSEVLNQLREIVNPSNPLGKYEMKKQIGVGASGTVFVANVAGSTDVVAVKRMAFKTQPKKEMLLTEIKVMKQYRHPNLVNYIESYLVDADDLWVVMDYLEGGNLTDVVVKTELDEGQIAAVLQECLKALHFLHRHSIVHRDIKSDNVLLGMNGEVKLTDMGFCAQIQPGSKRDTVVGTPYWMSPEILNKKQYNYKVDIWSLGIMALEMIDGEPPYLRETPLKAIYLIAQNGKPEIKQRDRLSSEFNNFLDKCLVVDPDQRADTTELLAHPFLKKAKPLSSLIPYIRAVREK” as the sequence, how does the “soluble on expression in E. coli” value read?
Answer: Its value is “not soluble”.

Question: Which “soluble on expression in E. coli” value does the source give for “MFRIGQGFDVHEFAEGRPLIIGGITIPHEKGLIGHSDADVLLHTIADACLGAIAAGDIGKHFPDTDPAFKDADSAVLLQKVWEFVREQGYELGNLDCTIIAQKPKMAPHIESMRKRISELLETSIDNINVKATTTEKLGFTGREEGIASQAVVLLQKK” here?
Answer: Its value is “not soluble”.

Question: Which “soluble on expression in E. coli” value does the source give for “MFRSVLVEAAVRVESPLLAHRLEDALLHACKQRFCSRILPSLGVCLTALRICKLVDGAGKQLALEIWPVEVSGGGLRARVHVELLLWSPLPHELAFAQVRSCSRFGIRLSILNGFDYAFVPPGSMPEPCTYHEEQRCWSWRFNEDDFVIGEGDWVRVLIERVEYATDSAMATFDSPGTVGSGPPLHILPPPVPVGRTVMETDQANATPGAHPEHAPPLETEPPEFWETPSILPLRVWARLDAPGLGPIDWWS” here?
Answer: Its value is “not soluble”.

Question: Which “soluble on expression in E. coli” value does the source give for “MFSALRHRTAALALGVCFILPVHASSPKPGDFANTQARHIATFFPGRMTGTPAEMLSADYIRQQFQQMGYRSDIRTFNSRYIYTARDNRKNWHNVTGSTVIAAHEGKAPQQIIIMAHLDTYAPQSDADADANLGGLTLQGMDDNAAGLGVMLELAERLKNTPTEYGIRFVATSGEEEGKLGAENLLKRMSDTEKKNTLLVINLDNLIVGDKLYFNSGVKTPEAVRKLTRDRALAIARSHGIAATTNPGLNKNYPKGTGCCNDAEIFDKAGIAVLSVEATNWNLGNKDGYQQRAKTAAFPAGNSWHDVRLDNQQHIDKALPGRIERRCRDVMRIMLPLVKELAKAS” here?
Answer: The value was “not soluble”.

Question: With “MFSGGRKVKWNHFGKKYALRFSDYEMEYADLYDALLKKVHEVRADFEGDLAFIDQYGRQVIVSSDKDVREAIQQSKNKLKLHTTLRDGHVIAAADMAEAARGRPARSQSVPPERSYNMYPQRSPSSMDSAPDTYRHHPQQMTRAMSPPPMSTTTGSTHSPPLRQIGETVKTTYSHSGSYGGLYPGGYKGYPYGGGYSNSILYGMPPHNGMLWRFLANPFPFGNAQTRSFIGPNKYHHFGGYNHMYSSGFGGPVW” as the sequence, how does the “soluble on expression in E. coli” value read?
Answer: Its value is “not soluble”.

Question: For “MFSPSTTTLFRFVECTEDQHALEILEILNDAIINSTALYDYKPRSKESMAAWFATKRQNNFPIIGAVNEVGQLLGFASWGSFRAFPAYKYTVEHSVYIHKDYRGLGLSKHLMNELIKRAVESEVHVMVGCIDATNVASIQLHQKLGFIHSGTIQQAGFKFGRWLDAAFYQLTLDTPLHPQDD”, which “soluble on expression in E. coli” value is on record?
Answer: Its value is “soluble”.

Question: Which “soluble on expression in E. coli” value does the source give for “MFSRRTTPSPSITTASSSTFSISNLTNNNATSTSDLPASAISNIVPQIPPTPRRVPPKIGLLRHLSGFLESKKDLMNDWEIGGTQNKWVCPSDRHLHLRAQLKSGWSVRTATARSPTNSKAQTGSITAAEQEHIQKVLAKAEESKSKEQQRIGKMVDRLEKMRRRATGNGVTHCLLCHTEFGLLASKSYAAMCVDCRKYVCQRNCGVETTDVNQTTGKVETVFLCKICSEAREVLWKKSGAWFYKEMPEFQRPDDRLPYYVPVTTNGTLPNASSAATPLSGTPGGAGPQPMTMPSTSSCQMTTPKWASPGVCNSPGLQMNGGPTSPLPNGTRRNTGHGGIEFPSSSRPSICSVLQAIEPLDRSKSPRPRIQPRWVNEKVMSSMSVDDEEKAASSSDGESFVQSGVPRRALNNKTPVGSTSATTSPAPPPTSTTPTSRREANMERFSRHTHAHANRLYSTDDDDDSSPESRPSTRSTSPRHSLATPSSYAHDTCHDTSLPDADTRSIDSGVVQSDHSNPQQSGLTCSSSSLTPLQQQASHDHHSGGGTPRRISNPDRTTSRVAQSASGTSLVTPPPPISSRTSPDNCNSSPLNVMEHKSSSASTASSGGNRRVGSAEPVLNNHHAMHNNQNHNDINKKLISQTSRAESPLAASSSFLSSPDDDTKQKNRRRDGVGRVNSLQLRTSLDDVAPPVAPISKMNGHIVSSEPTSSTTSNQNHTSVPIPTVPVVPEEEEEKAITASTESASEPGSLGSITLTLTYHSADKKLKMHLIRAKNLKAMDSNGFSDPYVKFHLLPGNTKATKLTSKTIEKTLNPEWNEEMSYYGITEDDKEKKILRVTVLDRDRIGSDFLGETRIALKKLNDNEMKKFNLYLESALPVPQQTKEEENEDRGKINVGLQYNIQQGSLFININRCVELVGMDSTGFSDPYCKVSLTPITSKAHRAKTSTKKRTLNPEWNEQLQFVVPFKDLPKKTLQIGVYDHDLGKHDDYIGGILLSTSAKDERGRQWIKCIENPGTLVEAWHRLELDS” here?
Answer: The value was “not soluble”.

Question: For “MFSVYAHRVAAVKDEENGAVKKVTDSVENYNSENRFERTIIVANDNKTAILLILRLKQDGVKTSVFTNYLADDEIVLGEQKKAFVEGAHKVAVCTTQMFEKMEFDVVKHYIFVDAPAEEKLRDQLRQKAVCEGKKIRVDLVMSESYEVSVKVEEKPAEASKPSPKRKCSFDIYSIKPNKQGKFVIPAEYMGFDESAEDDEYDSEYDDDDYNPFKWLGF”, which “soluble on expression in E. coli” value is on record?
Answer: The value was “not soluble”.

Question: For “MFTGLHDILIILFLLVTLKIAQNVDHTKFLQKYGYLTSGDNQLSSESLSDALKNMQRMAGLEETGELDERTIQMMERPRCGHPDVEDHQKSRGKRYAPPQFKWKEKIITYGCKAVGTSTRISLDDLRRTMHQAASQWSELADVEIVESSVKNPMMVISAGRENHYPCTVRFDTKTLAHAFFPTNGQIHINDRVQFAMTNYTERMGANSLYSVVAHEMGHALGFSHSPDIDSVMFAYDTPRKWKFTSMDKYNMRSYYGAKASKKENEEEERKTENEDKRRKTEKDRGRTREHESDDIRPNECRVENPIVVQYRGEYLIFKSQWVWRVSSDWKRLIIKAVPINQLFPGLPNPIDAAVTVGHNLWVFVGEMIYVIYGNHMVHAPLRLSDIGINEKYVDLAYEWHYFNPPAVYIWKGSRYWKLDEKMYHRRVDERYPKDTDLNWARVPKGVHSAFTYEKEIHLLRGNQVFRMNSSRSVFDIADGYPQPLQSFFGFCPRNEKLVLNSSSSHFSLIYATITILILIF”, which “soluble on expression in E. coli” value is on record?
Answer: The value was “not soluble”.

Question: For “MFTLRELPFAKDSMGDFLSPVAFDFHHGKHHQTYVNNLNNLIKGTDFEKSSLFAILTKSSGGVFNNAAQIYNHDFYWDCLSPKATALSDELKGALEKDFGSLEKFKEDFIKSATTLFGSGWNWAAYNLDTQKIEIIQTSNAQTPVTDKKVPLLVVDVWEHAYYIDHKNARPVYLEKFYGHINWHFVSQCYEWAKKEGLGSVDYYINELVHKKL”, which “soluble on expression in E. coli” value is on record?
Answer: The value was “soluble”.

Question: For “MFVMIIQGQVLGGYPRSRYVRRALRRLEQGEISAVELMGVLNQASSAVIGAQVSQGFPYVVDGMLDWHDIFRPFAEAWRNVTPTGLLRYFDNNFFYRIPLFTGEPEPTDPVLAPRVLSYSQVAEPAKLKVVVPGPVTFTLMSRNESGISDEELAEAIANLLADEVEKAVKAGAGFVQVDEPILSEPKATRDHALLAAELAGVIASRSGSAETMLSVYFYPPKPEVYEALLEARVDYLMVDLVAAGSKGLEVITGKGAGEGLALGVIDARSIYSESLEKVEAPVRRIVESVKPEKIILTTSTWLDLIPYRYALRKTALLGRYTYALAEKLGAQIAVAGGEMAGDPLEHHHHHH”, which “soluble on expression in E. coli” value is on record?
Answer: Its value is “not soluble”.

Question: For “MFVRFASAQSVPPGDIQTQPGTKIVFNAPYDDKHTYHIKVINSSARRIGYGIKTTNIKRLGVDPPCGVLDPKEAVLLAVSCDAFAFGQEDTNNDRITVEWTNTPDGAAKQFRREWFQGDGMVRRKNLPIEYNP”, which “soluble on expression in E. coli” value is on record?
Answer: The value was “soluble”.

Question: Which “soluble on expression in E. coli” value does the source give for “MGAAAAMLAAVLLLTPITVPAGYPGAVAPATAACPDAEVVFARGRFEPPGIGTVGNAFVSALRSKVNKNVGVYAVKYPADNQIDVGANDMSAHIQSMANSCPNTRLVPGGYSLGAAVTDVVLAVPTQMWGFTNPLPPGSDEHIAAVALFGNGSQWVGPITNFSPAYNDRTIELCHGDDPVCHPADPNTWEANWPQHLAGAYVSSGMVNQAADFVAGKLQ” here?
Answer: Its value is “not soluble”.

Question: For “MGAIQFQTAPKLPVTVLLAAKNEAVNLPRCLAALGPAERVIVLDSHSTDATAEIARQHGAEVAQFDYRGGYPKKRQWALDTIPFGTPWILLLDADEVVPEDLWKEIGNVTRQPDADAYLITKGFHFLGRKFKHGGFSHSAVLLFKTGMARFEKLFDDDLNGLDMEIHERVVVDGRIGKLKTPLVHEDFKGLEAYITRHNKYSTWEAKVRHHYLTTGRYGEQTIKPRLFGNSQERRRFLKALIIRLPFEPQIWFIYHYLLRLGFLEGRPGLIASQIRAAYIAQARAKIYELRLNTPSRLEHHHHHH”, which “soluble on expression in E. coli” value is on record?
Answer: The value was “not soluble”.

Question: Which “soluble on expression in E. coli” value does the source give for “MGCGLRKLEDPDESSPGKIFSTLKRPQVETKTEFAYEYALLDFTLQASTNPDVIKINSVLDIVAKVEDYYLKGYVVGAIHPVIQPVGQRKHLPASHLYRAVLSRLKLSPKHSAAGGQRRARLVMEECPLTCEAQANDAAKELMDKINAAAKRGMKFVGLVSQCYLPSMHCNGASHDGVAESGLHVRQDSQDNCKGWNEGALGGHLSESGVEEEPQHESGQHQTERNSSPSYANPKRGEAPDGKLYMVFNAFEEDAASWAYQEGVLSMKVTRKGAVISALDANWLELTTFYYKQGFSLIDSFVCWETPKVAKLEAFQLSVSDKLPKGKQKYSFQSLSGIPASGLA” here?
Answer: Its value is “soluble”.

Question: Which “soluble on expression in E. coli” value does the source give for “MGDGVLELVVRGMTCASCVHKIESSLTKHRGILYCSVALATNKAHIKYDPEIIGPRDIIHTIESLGFEASLVKIE” here?
Answer: The value was “soluble”.

Question: With “MGDIHFIGSAANFFRSSTSDDWVRFHTFAEETLKGSQSLIALQWLVKVEPPQAETFTARMQQRFPEFTLYTVPKTGEIKYGFGTDDQAKYVLSDIYPLNYDNRKLLGFYSERERFKRILADIVVNRRPNVSDKVRLLQDGIDKSIVKDGMLVYHPVFSSEDDRSLLGVMVGVVRLSTYFEKLVQISVMEQDLDMRVIDTGFDSEDSPVLYQSPMWRADDEPKIERKLVLPNRDWVLEFELHQPINHSEELEHHHHHH” as the sequence, how does the “soluble on expression in E. coli” value read?
Answer: The value was “not soluble”.
